From the supplement of paper PMC7125110 come the findings set out here.

± gives the standard error. Fewer inactive variants are shown than the library holds.

B1: glmS ribozyme (parent)
chain: AUAAAAGCGCCAGAACUACAGAAAUGUAGUUGACGAGGAGGAGGUUUAUCGAAUUUUCGGCGGAUGCCUCCAAA

Details in all cases: with glucosamine-6-phosphate
Data set [1] covers variants of B1. Description: self-cleavage kobs at 160 uM GlcN6P; higher = faster cleavage; RNA array. The method in brief:
(§1)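 The measurements used barcoded ribozyme variants on sequenced MiSeq chips, transcribed in situ by E. coli RNA polymerase and tracked at 37 °C with a hybridised Cy3 probe. Glucosamine-6-phosphate, 40 μM to 10 mM in HEPES/KCl/Mg(OAc)2 buffer, was flowed in while tiles were imaged over ~14 h. Baseline-normalised signals, also normalised to non-cleaving reference variants, gave per-tile medians that were fit to one- or two-exponential decays for kobs. kcat and KM resulted from weighted Michaelis–Menten fits across concentrations.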

Variants of B1 are the subject of data set [2]. As to the kind of experiment: self-cleavage kobs at 640 uM GlcN6P; higher = faster cleavage; RNA array. The method in brief:
as §1

The variants in data set [3] derive from B1. Description: self-cleavage kobs at 2500 uM GlcN6P; higher = faster cleavage; RNA array. The method in brief: as §1
The variants in data set [4] derive from B1. As to the kind of experiment: self-cleavage kobs at 10000 uM GlcN6P; higher = faster cleavage; RNA array. The method in brief:
as §1

In the case of A6U C34A G63C, in data set [1], the “self-cleavage kobs at 160 uM GlcN6P” value was under 1e-05 s⁻¹. The “self-cleavage kobs at 640 uM GlcN6P” value in data set [2] was under 1e-05 s⁻¹. Also, the “self-cleavage kobs at 2500 uM GlcN6P” value in data set [3] is under 1e-05 s⁻¹.
For the variant G38A U54G C68A, the “self-cleavage kobs at 160 uM GlcN6P” value in data set [1] was determined as 5.08e-05 ± 2e-05 s⁻¹.
Turning to A15G G40U C70A, in data set [1], the “self-cleavage kobs at 160 uM GlcN6P” value came to 4.48e-05 ± 1.3e-05 s⁻¹. Further, the “self-cleavage kobs at 640 uM GlcN6P” value in data set [2] was 0.000328 ± 8e-05 s⁻¹. Further, the “self-cleavage kobs at 2500 uM GlcN6P” value in data set [3] is 0.000773 ± 0.00016 s⁻¹. The “self-cleavage kobs at 10000 uM GlcN6P” value in data set [4] came to 0.000531 ± 0.00014 s⁻¹.
G7C A53C: the “self-cleavage kobs at 160 uM GlcN6P” value in data set [1] is under 1e-05 s⁻¹. The “self-cleavage kobs at 640 uM GlcN6P” value in data set [2] is under 1e-05 s⁻¹. Also, in data set [3], the “self-cleavage kobs at 2500 uM GlcN6P” value is under 1e-05 s⁻¹.
Regarding C10A A14G U69G, the “self-cleavage kobs at 160 uM GlcN6P” value in data set [1] came to 0.000148 ± 5.1e-05 s⁻¹. The “self-cleavage kobs at 640 uM GlcN6P” value in data set [2] turned out to be 0.000195 ± 7.6e-05 s⁻¹. Also, the “self-cleavage kobs at 2500 uM GlcN6P” value in data set [3] is 6.53e-05 ± 2.3e-05 s⁻¹.
For the variant U45C A64U, the “self-cleavage kobs at 160 uM GlcN6P” value in data set [1] was under 1e-05 s⁻¹. For the same variant, the “self-cleavage kobs at 640 uM GlcN6P” value in data set [2] is under 1e-05 s⁻¹.
As for A36U U45C, the “self-cleavage kobs at 160 uM GlcN6P” value in data set [1] was under 1e-05 s⁻¹. Moreover, in data set [2], the “self-cleavage kobs at 640 uM GlcN6P” value was under 1e-05 s⁻¹. For the same variant, the “self-cleavage kobs at 2500 uM GlcN6P” value in data set [3] is under 1e-05 s⁻¹. In addition, the “self-cleavage kobs at 10000 uM GlcN6P” value in data set [4] is under 1e-05 s⁻¹.
For A15G G41U G62U, the “self-cleavage kobs at 160 uM GlcN6P” value in data set [1] was under 1e-05 s⁻¹. Further, in data set [2], the “self-cleavage kobs at 640 uM GlcN6P” value was under 1e-05 s⁻¹. Further, the “self-cleavage kobs at 2500 uM GlcN6P” value in data set [3] is under 1e-05 s⁻¹.
For the variant C34A C50G, the “self-cleavage kobs at 160 uM GlcN6P” value in data set [1] was found to be 5.9e-05 ± 1.6e-05 s⁻¹. In addition, the “self-cleavage kobs at 640 uM GlcN6P” value in data set [2] is 0.000448 ± 0.00021 s⁻¹.
For G35U U46C, in that order: under 1e-05 s⁻¹ and under 1e-05 s⁻¹.
For G41U A52U U57C, the “self-cleavage kobs at 160 uM GlcN6P” value in data set [1] is under 1e-05 s⁻¹.
Take U56C C67G: the “self-cleavage kobs at 160 uM GlcN6P” value in data set [1] is under 1e-05 s⁻¹. Further, the “self-cleavage kobs at 640 uM GlcN6P” value in data set [2] is under 1e-05 s⁻¹. Besides, the “self-cleavage kobs at 10000 uM GlcN6P” value in data set [4] was under 1e-05 s⁻¹.
Turning to G32U G59C, the “self-cleavage kobs at 160 uM GlcN6P” value in data set [1] is under 1e-05 s⁻¹. In data set [2], the “self-cleavage kobs at 640 uM GlcN6P” value was under 1e-05 s⁻¹. Also, the “self-cleavage kobs at 2500 uM GlcN6P” value in data set [3] was under 1e-05 s⁻¹.
On to C16U G40C U49C G51A, for which, in data set [1], the “self-cleavage kobs at 160 uM GlcN6P” value was under 1e-05 s⁻¹. For the same variant, the “self-cleavage kobs at 640 uM GlcN6P” value in data set [2] is under 1e-05 s⁻¹. Further, the “self-cleavage kobs at 2500 uM GlcN6P” value in data set [3] was under 1e-05 s⁻¹.
Regarding A14G G35U G60A C68G, the “self-cleavage kobs at 160 uM GlcN6P” value in data set [1] was under 1e-05 s⁻¹.
G9A G43C G44C G62U: the “self-cleavage kobs at 160 uM GlcN6P” value in data set [1] is under 1e-05 s⁻¹. Further, in data set [2], the “self-cleavage kobs at 640 uM GlcN6P” value is under 1e-05 s⁻¹. For the same variant, in data set [3], the “self-cleavage kobs at 2500 uM GlcN6P” value is under 1e-05 s⁻¹.
For the variant A42G G60A C68A, the “self-cleavage kobs at 160 uM GlcN6P” value in data set [1] is under 1e-05 s⁻¹.
On the same count and under the same terms, for C67U C68U C71G the value was 7.37e-05 ± 2e-05 s⁻¹; for A14U A15C A48C U56A C67A, under 1e-05 s⁻¹.
For the variant U30C G62A C68G, the “self-cleavage kobs at 160 uM GlcN6P” value in data set [1] was under 1e-05 s⁻¹. Besides, the “self-cleavage kobs at 640 uM GlcN6P” value in data set [2] was under 1e-05 s⁻¹. Also, in data set [3], the “self-cleavage kobs at 2500 uM GlcN6P” value is under 1e-05 s⁻¹. In data set [4], the “self-cleavage kobs at 10000 uM GlcN6P” value is under 1e-05 s⁻¹.
For A64G G66U C70U, the “self-cleavage kobs at 160 uM GlcN6P” value in data set [1] turned out to be 0.000115 ± 2.1e-05 s⁻¹. For the same variant, in data set [2], the “self-cleavage kobs at 640 uM GlcN6P” value amounted to 0.000373 ± 9.3e-05 s⁻¹. The “self-cleavage kobs at 2500 uM GlcN6P” value in data set [3] turned out to be 0.000872 ± 0.00017 s⁻¹.
As for A52G G60A, the “self-cleavage kobs at 160 uM GlcN6P” value in data set [1] is under 1e-05 s⁻¹. Besides, the “self-cleavage kobs at 10000 uM GlcN6P” value in data set [4] is under 1e-05 s⁻¹.
Turning to G7U U55G U57G C61A A64C C68U, the “self-cleavage kobs at 160 uM GlcN6P” value in data set [1] is under 1e-05 s⁻¹. In addition, the “self-cleavage kobs at 2500 uM GlcN6P” value in data set [3] is under 1e-05 s⁻¹.
As for G32C G38A C50G, in data set [1], the “self-cleavage kobs at 160 uM GlcN6P” value is 0.000156 ± 5.3e-05 s⁻¹. In addition, the “self-cleavage kobs at 640 uM GlcN6P” value in data set [2] was 0.000119 ± 3e-05 s⁻¹. Moreover, the “self-cleavage kobs at 2500 uM GlcN6P” value in data set [3] came out at 8.89e-05 ± 2.7e-05 s⁻¹.
For C8G G60A C61A, the “self-cleavage kobs at 160 uM GlcN6P” value in data set [1] is under 1e-05 s⁻¹. In addition, in data set [3], the “self-cleavage kobs at 2500 uM GlcN6P” value was under 1e-05 s⁻¹. Also, the “self-cleavage kobs at 10000 uM GlcN6P” value in data set [4] was under 1e-05 s⁻¹.
As for G41C A52C C68U, the “self-cleavage kobs at 160 uM GlcN6P” value in data set [1] was under 1e-05 s⁻¹.
